We go through three molecules from article PMC5618690, “Structural and functional analysis of two small leucine-rich repeat proteoglycans, fibromodulin and chondroadherin” (Matrix Biology, 2017).

Entries after “also recorded” stand apart in the source; their conditions may differ.

Series [1] in a line: Affinity of untagged protein for Ni^2 + resin. As for the experimental part:
For purification of His-tagged fibromodulin, the filtered serum-free cell culture supernatant was adjusted to a final concentration of 20 mM Na-HEPES (pH 7.5) and loaded onto a 5-ml HisTrap Excel column (GE Healthcare) using an Äkta Purifier (GE Healthcare). The column was washed with buffer A (20 mM HEPES pH 7.5, 150 mM NaCl, 2 mM CaCl2) and the protein was eluted with 500 mM imidazole in buffer A. To remove the His-tag, fractions containing protein were incubated overnight with recombinant His-tagged TEV protease (made in E. coli using an expression vector kindly provided by Stephen Curry) while dialysing against buffer A. The reaction mixture was passed over a 5-ml HisTrap Excel column, and the flow-through containing the untagged fibromodulin protein was collected. After concentration using a Vivaspin centrifugal device (Sartorius), the fibromodulin protein was further purified by size exclusion chromatography on a Superdex 75 10/300 GL column (GE Healthcare) using buffer A as the running buffer. The purified protein ran as a single broad band of ~ 55 kDa on reducing SDS-PAGE (calculated: 41.5 kDa + 4 N-linked glycans).
The natural affinity of chondroadherin for Ni^2 + affinity resin was used to purify the untagged protein. […]

Series [2] is described as follows: SEC-MALS, oligomeric state in solution. The class given is physicochemical. The following applies: for oligomeric state in solution / experimentally determined mass: SEC-MALS; for oligomeric state in solution: 10 mg/ml injected, pH 7.5, peak protein concentration estimated at least 50 μM; for experimentally determined mass: Superdex 75, 10 mg/ml injected, 150 mM NaCl, 20 mM HEPES (pH 7.5), 0.1 ml/min; for dissociation constant of dimer (if any): inferred from SEC-MALS, compared with decorin dimer 1.4 μM. As for the experimental part: Fibromodulin and chondroadherin samples at a concentration of 10 mg/ml were injected onto a Superdex 75 10/30 column (GE Healthcare) connected to a 1260 Infinity HPLC (Agilent Technologies). The running buffer was 150 mM NaCl, 20 mM HEPES (pH 7.5) and the flow rate was 0.1 ml/min. Light scattering and refractive index changes were monitored using in-line Wyatt Mini Dawn and Optilab T-rEX detectors (Wyatt Technology Corp). The data were analysed with the Wyatt ASTRA V software. Each N-linked glycosylation site was assumed to add 2 kDa of molecular mass. The extinction coefficients for fibromodulin and chondroadherin were calculated as 32,930 and 40,715 M^− 1 cm^− 1, respectively.

For series [3] the following is noted: C-terminal 14 residues; ref [15]; cited from earlier work. The text has this: The collagen-binding site on chondroadherin has not been mapped. […] These positions map to the α-helix in the C-terminal cap of chondroadherin. Glu316, the last residue of the α-helix, appears to be critical for integrin binding and may interact with the metal ion-dependent adhesion site of the integrin α2 I domain [45], [46].

A further series relates to collagen III. Nature of the series: Chondroadherin binding to collagen III. The following applies: Collagen Toolkit III solid-phase assay. As for the experimental part:
(§1) Recombinant purified chondroadherin was biotinylated using biotin EZ-link reagent (ThermoFisher) and dialysed into TBS to remove excess biotinylation reagent. Collagen peptides from Toolkit II and III [57], [58] were coated on a 96-well plate at 10 μg/ml in 20 mM acetic acid overnight at 4 °C. […] The following incubations were conducted at room temperature. Plates were rinsed three times with TBS and blocked for 1 h with 5% BSA in TBS. After rinsing with TBS, plates were incubated with biotinylated chondroadherin at 10 μg/ml in TBST (TBS with 0.1% Tween-20) with 0.1% BSA for 1 h. Plates were washed three times with TBST, and incubated with streptavidin-HRP (Millipore) diluted 1:20,000 in TBST with 0.1% BSA for 1 h. Plates were washed five times with TBST, and the binding was detected with TMB substrate (ThermoFisher) and stopped with 2 M sulphuric acid. The absorbance was read at 450 nm.

Series [4] has as its system collagen II. As to the kind of experiment: Chondroadherin binding to collagen II mapped with Toolkit II. The following applies: mapped with Toolkit II solid-phase assay; six of the nine triplets in II-26. As for the experimental part: as §1
Another series has as its system collagen I. The following applies: ref [11]; cited from earlier work. The text has this:
(§2) Chondroadherin knockout mice present with ...

Series [5] has as its system collagen II. The conditions noted are these: ref [13]; cited from earlier work. An excerpt:
One of the more distant homologues of fibromodulin is chondroadherin, a class IV SLRP found in cartilage and bone. Chondroadherin-deficient mice have thinner cortical bones and longer growth plate proliferation zones, as well as mechanically softer knee surface cartilage.

In another series the test system is integrin α2β1. The conditions noted are these: cited from earlier work. The text has this:
One of the more distant homologues of fibromodulin is chondroadherin, a class IV SLRP found in cartilage and bone. Chondroadherin-deficient mice have thinner cortical bones and longer growth plate proliferation zones, as well as mechanically softer knee surface cartilage. […] These positions map to the α-helix in the C-terminal cap of chondroadherin. Glu316, the last residue of the α-helix, appears to be critical for integrin binding and may interact with the metal ion-dependent adhesion site of the integrin α2 I domain [45], [46].

Another series concerns Lysyl oxidase. The following applies: very N-terminus of fibromodulin; ref [9]; cited from earlier work. The text has this: Previous studies with bacterially expressed fibromodulin fragments identified LRRs 5-7 and 11 (VI-VIII and XII in the numbering scheme used here) as important for collagen binding, [25]. Thus, the collagen binding site appears to be located in the C-terminal half of fibromodulin, potentially leaving the N-terminal half containing most of the surface-exposed aromatic residues free to interact with another partner.

The test system of series [6] is Collagen Toolkits II and III. The following applies: Toolkit peptides from collagens II and III; ref [9]; cited from earlier work.
From the text: as §2

For series [7] the following is noted: not SEC-MALS of this work; ref [26], [32], [33]; cited from earlier work. The text has this: Fig. 3 Concave face interactions in SLRP crystal structures. For each structure, two orthogonal views are shown. […] The experimentally determined mass of fibromodulin was 56.7 kDa (calculated: 41.5 kDa + 4 N-linked glycans) and that of chondroadherin was 39.6 kDa (calculated: 38.6 kDa). In comparison, using the same SEC-MALS setup, we previously determined an experimental mass of 83.5 kDa for the glycosylated decorin core protein (calculated: 36.2 kDa + 4 N-linked glycans).

B1: chondroadherin: human chondroadherin, residues 23–359 of Uniprot O15335, untagged; vector-derived APLA sequence at the N-terminus (protein)
chain: APLACPQNCHCHSDLQHVICDKVGLQKIPKVSEKTKLLNLQRNNFPVLAANSFRAMPNLVSLHLQHCQIREVAAGAFRGLKQLIYLYLSHNDIRVLRAGAFDDLTELTYLYLDHNKVTELPRGLLSPLVNLFILQLNNNKIRELRAGAFQGAKDLRWLYLSENALSSLQPGALDDVENLAKFHVDRNQLSSYPSAALSKLRVVEELKLSHNPLKSIPDNAFQSFGRYLETLWLDNTNLEKFSDGAFLGVTTLKHVHLENNRLNQLPSNFPFDSLETLALTNNPWKCTCQLRGLRRWLEAKASRPDATCASPAKFKGQHIRDTDAFRSCKFPTKRSKKAGRH
In the case of B1, the “affinity for Ni^2 + resin” value in series [1] was “substantial affinity for Ni^2 + resin”. Moreover, in [2], the “oligomeric state in solution” value is on record as “predominantly monomeric in solution; also recorded: neither fibromodulin nor chondroadherin forms a stable dimer in solution; also recorded: at best, very weak”; the experimentally determined mass is 39.6 kDa; the “dissociation constant of dimer (if any)” value was “substantially higher than that of the decorin dimer”. Besides, the heparan sulphate binding entry in series [3] is listed as “bind heparan sulphate”. The “binding to collagen III” value in the series with collagen III was “not at all to collagen III”. For the same molecule, in the series on collagen II [4], the “binding to collagen II” value is “binds to a unique sequence motif in collagen II”. The “binding to collagen I” value in the series on collagen I is given as “reported binding of chondroadherin to collagen I”. Besides, the “interaction with collagen II” value in the series on collagen II [5] is “interacts with collagen II”. Moreover, the “integrin α2β1 binding” value in the series on integrin α2β1 (binding site in chondroadherin, ref [44]) is reported as “residues 307–318 have been identified as a binding site for integrin α2β1”. Also, the “interaction with integrin α2β1 (cell-matrix interactions)” value in the series with integrin α2β1 (ref [14]) is listed as “mediates cell-matrix interactions through binding to integrin α2β1”.

B2: fibromodulin: human fibromodulin residues 19–376 of UniProt Q06828, ten N-terminal tyrosines mutated to serine, natively glycosylated (protein)
chain: GALAQYEDDPHWWFHYLRSQQSTSSDPSDPSPSETSEPSPSGVDEGPASTSGSPSPPDPRDCPQECDCPPNFPTAMYCDNRNLKYLPFVPSRMKYVYFQNNQITSIQEGVFDNATGLLWIALHGNQITSDKVGRKVFSKLRHLERLYLDHNNLTRMPGPLPRSLRELHLDHNQISRVPNNALEGLENLTALYLQHNEIQEVGSSMRGLRSLILLDLSYNHLRKVPDGLPSALEQLYMEHNNVYTVPDSYFRGAPKLLYVRLSHNSLTNNGLASNTFNSSSLLELDLSYNQLQKIPPVNTNLENLYLQGNRINEFSISSFCTVVDVVNFSKLQVLRLDGNEIKRSAMPADAPLCLRLASLIEI
modifications: N-linked glycans at Asn127, Asn166, Asn201, Asn291; left off: His-tag, N-terminal, cleaved
notes: human fibromodulin residues 19–376 of UniProt Q06828, ten N-terminal tyrosines mutated to serine, natively glycosylated
Consider B2, for which the “binding to lysyl oxidase” value in the series on Lysyl oxidase is on record as “Lysyl oxidase has been shown to bind to the very N-terminus of fibromodulin”. Moreover, in series [1], the “affinity for Ni^2 + resin” value is on record as “substantial affinity for Ni^2 + resin”. Moreover, in series [2], the “oligomeric state in solution” value is reported as “predominantly monomeric in solution; also recorded: neither fibromodulin nor chondroadherin forms a stable dimer in solution”, the experimentally determined mass came to 56.7 kDa and the “dissociation constant of dimer (if any)” value is on record as “substantially higher than that of the decorin dimer”. For the same molecule, in [6], the “binding to Toolkit peptides” value is “bound several Toolkit peptides from both collagens II and III; also recorded: binds to KGHR-containing sites in Collagen Toolkits II and III”.

B3: biglycan: class I SLRP core protein (protein, UniProt P21810 38-368, looked up)
Biglycan: DEEASGADTSGVLDPDSVTPTYSAMCPFGCHCHLRVVQCSDLGLKSVPKEISPDTTLLDLQNNDISELRKDDFKGLQHLYALVLVNNKISKIHEKAFSPLRKLQKLYISKNHLVEIPPNLPSSLVELRIHDNRIRKVPKGVFSGLRNMNCIEMGGNPLENSGFEPGAFDGLKLNYLRISEAKLTGIPKDLPETLNELHLDHNKIQAIELEDLLRYSKLYRLGLGHNQIRMIENGSLSFLPTLRELHLDNNKLARVPSGLPDLKLLQVVYLHSNNITKVGVNDFCPMGFGVKRAYYNGISLFNNPVPYWEVQPATFRCVTDRLAIQFGNYKK
For B3, in series [7], the “oligomeric state in solution (literature)” value is listed as “form stable dimers in solution”.
